# Data from article PMC5021340.
# Target: Mig1 (Xanthophyllomyces dendrorhous) (UniProt A0A1C9UL02)
# Test: EMSA
# Conditions: 20 mM HEPES pH 7.9, 50 mM KCl, 1 mM DTT, 0.1 mM EDTA, 5% glycerol (+2.5%), 200 ug/ml BSA, 50 ng/ul poly(dI-dC), 0.05% NP-40, 20 fmol DNA, 10 ug Mig1 in 20 ul …
# Chain of Mig1 (Xanthophyllomyces dendrorhous) (A0A1C9UL02 entry or part of it): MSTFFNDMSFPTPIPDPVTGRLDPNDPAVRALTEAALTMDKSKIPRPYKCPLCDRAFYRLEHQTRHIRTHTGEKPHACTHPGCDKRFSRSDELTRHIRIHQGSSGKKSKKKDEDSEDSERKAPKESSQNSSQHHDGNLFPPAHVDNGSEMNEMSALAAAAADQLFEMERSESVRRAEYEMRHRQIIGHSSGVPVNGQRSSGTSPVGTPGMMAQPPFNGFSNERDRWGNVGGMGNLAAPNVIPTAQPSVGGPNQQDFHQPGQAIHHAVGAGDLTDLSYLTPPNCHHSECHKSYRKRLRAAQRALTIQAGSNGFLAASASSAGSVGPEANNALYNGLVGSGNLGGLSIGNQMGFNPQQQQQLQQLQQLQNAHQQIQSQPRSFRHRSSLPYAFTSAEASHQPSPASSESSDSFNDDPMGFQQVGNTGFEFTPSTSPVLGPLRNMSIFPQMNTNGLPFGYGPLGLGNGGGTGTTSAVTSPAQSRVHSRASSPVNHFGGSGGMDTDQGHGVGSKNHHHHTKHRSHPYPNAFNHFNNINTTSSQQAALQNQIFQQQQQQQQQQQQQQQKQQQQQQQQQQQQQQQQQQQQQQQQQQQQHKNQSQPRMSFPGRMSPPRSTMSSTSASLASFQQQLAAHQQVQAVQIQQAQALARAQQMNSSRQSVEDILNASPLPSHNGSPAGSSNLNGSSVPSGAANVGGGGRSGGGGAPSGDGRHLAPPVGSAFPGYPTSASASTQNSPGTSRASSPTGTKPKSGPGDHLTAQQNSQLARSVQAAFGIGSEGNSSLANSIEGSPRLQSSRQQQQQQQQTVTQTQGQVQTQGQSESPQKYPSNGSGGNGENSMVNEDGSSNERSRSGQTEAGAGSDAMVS
sequence,measurement,value
GAAGATGATGCGGCGGCAACTGGTTCTGGGCTGGGGAACACCCTATTCGACCGGTTGAATGAGTCACAATCGGCCGGCAGCCCTGCTGCAGGCACCGGCGCAAGTGGCTCCGGACCGAAGCCTCGCCAGCAGTTGATCAAGCGAACCAAGCCGAACAATCCTGGCGCGCCTGGAGGAGCGGGAGCGGGAGGAGCAGCAGGTGATGCATC (double strand) [crtS promoter boxes C-D 209 bp],binding,binds
